The results in this text go back to publication doi:10.1101/2025.02.16.638521 (bioRxiv, 2025).

A word on the stoichiometry N: it is the number of molecules, sites or subunits per partner or assembly.

Experiment [1] deals with full-length Grb2 (Grb2^FL) (human, UniProt P62993 1-217). Kind of experiment: SEC-MALS. (In gel filtration, larger molecules generally elute earlier.)
Experiment [2] has as its target T1, Themis^1-563 (truncated Themis, residues 1-563) (human, UniProt Q8N1K5). Put plainly: cryo-EM structure.
Experiment [3] concerns the target tagless Themis^1-563 (co-expressed with His-tagged Grb2^FL) (human, UniProt Q8N1K5). Put plainly: cryo-EM structure.
Experiment [4] addresses Themis^1-563-Grb2^FL complex (co-expressed, pre-formed) (human, UniProt Q8N1K5;P62993). Put plainly: SEC-MALS.
Experiment [5] addresses T1, Themis^1-563 (truncated Themis, …). Put plainly: BLI. A general note: Biolayer interferometry detects binding as a change in optical thickness at a sensor tip.

Sequence of full-length Grb2 (Grb2^FL) (P62993 whole entry, the tested form may be a part): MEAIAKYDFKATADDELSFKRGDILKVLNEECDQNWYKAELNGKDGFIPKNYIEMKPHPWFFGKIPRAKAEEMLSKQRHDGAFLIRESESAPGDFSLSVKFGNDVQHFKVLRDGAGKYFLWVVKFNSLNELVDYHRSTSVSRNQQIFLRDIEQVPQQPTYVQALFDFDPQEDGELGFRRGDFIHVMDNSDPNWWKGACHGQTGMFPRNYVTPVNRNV
Sequence of Themis^1-563-Grb2^FL complex (co-expressed, pre-formed) (P62993 whole entry, the tested form may be a part, one chain of several): as the sequence (P62993 whole entry, the tested form may be a part) above

B1: tagless Themis^1-563 (co-expressed with His-tagged Grb2^FL) (domain or fragment)
chain: MALSLEEFVHSLDLRTLPRVLEIQAGIYLEGSIYEMFGNECCFSTGEVIKITGLKVKKIIAEICEQIEGCESLQPFELPMNFPGLFKIVADKTPYLTMEEITRTIHIGPSRLGHPCFYHQKDIKLENLIIKQGEQIMLNSVEEIDGEIMVSCAVARNHQTHSFNLPLSQEGEFYECEDERIYTLKEIVEWKIPKNRTRTVNLTDFSNKWDSTNPFPKDFYGTLILKPVYEIQGVMKFRKDIIRILPSLDVEVKDITDSYDANWFLQLLSTEDLFEMTSKEFPIVTEVIEAPEGNHLPQSILQPGKTIVIHKKYQASRILASEIRSNFPKRHFLIPTSYKGKFKRRPREFPTAYDLEIAKSEKEPLHVVATKAFHSPHDKLSSVSVGDQFLVHQSETTEVLCEGIKKVVNVLACEKILKKSYEAALLPLYMEGGFVEVIHDKKQYPISELCKQFRLPFNVKVSVRDLSIEEDVLAATPGLQLEEDITDSYLLISDFANPTECWEIPVGRLNMTVQLVSNFSRDAEPFLVRTLVEEITEEQYYMMRRYESSASHPPPRPPKHPSV
Consider B1, for which the “stoichiometry N” value in experiment [1] was found to be 1.

B2: PMb256 (Pro-Macrobody of Nb256) (VHH)
VHH: QVQLQESGGGLVQAGGSLRLSCAASGRTFSTYAMGWFRQAPGKEREFVAAILWSDGSTYYADSVKGRFTISRDNAKNTVYLQMNSLKPEDTAVYYCAADYTGVRYDYWGQGTQVTVPP
As to B2, the binding result in experiment [2] and in experiment [3] was “binds” each time.

B3: Nb256 (Themis-specific single domain VHH camelid antibody fragment) (VHH)
VHH: B2 VHH
B3: the binding result in experiment [4] and in experiment [5] was “binds” each time.
